Substitutions are numbered along the chain they refer to. Numbers in names are those of the source.

Here are results for eleven molecules from article PMC5400505, “Dissection of the interaction between the intrinsically disordered YAP protein and the transcription factor TEAD” (eLife, 2017).

Experiment [1] deals with T1, N-Avitagged wt hTEAD4^217-434 (human, UniProt Q15561 217-434, acylated at Cys367 (100%)).
T1 construct: TEAD4 (TEA/ATTS domain transcription factor 4), human, residues 217-434; held on streptavidin (SA) chips; also called Wild type; source: purified; not shown: Avitag, N-terminal, kept
Nature of the experiment: SPR; N-Avitagged hTEAD4^217-434 proteins immobilised on Series S Sensor Chip SA, YAP^50-171 proteins as analyte; Biacore T200; 25°C (298 K); 50 mM HEPES, 100 mM KCl, 0.25 mM TCEP, 1 mM EDTA, 0.05% Tween 20, 0.05% BSA, 2% DMSO, pH 7.4; Kd from equilibrium data (Kd^eq); upper limit for Kd^eq 200 µM. As to conditions: both partners purified.

The target of another experiment is wt hYAP (full length) (human, UniProt P46937 1-504). The experiment can be described thus: cell-based or functional assay.
wt hYAP (full length), sequence (P46937 whole entry): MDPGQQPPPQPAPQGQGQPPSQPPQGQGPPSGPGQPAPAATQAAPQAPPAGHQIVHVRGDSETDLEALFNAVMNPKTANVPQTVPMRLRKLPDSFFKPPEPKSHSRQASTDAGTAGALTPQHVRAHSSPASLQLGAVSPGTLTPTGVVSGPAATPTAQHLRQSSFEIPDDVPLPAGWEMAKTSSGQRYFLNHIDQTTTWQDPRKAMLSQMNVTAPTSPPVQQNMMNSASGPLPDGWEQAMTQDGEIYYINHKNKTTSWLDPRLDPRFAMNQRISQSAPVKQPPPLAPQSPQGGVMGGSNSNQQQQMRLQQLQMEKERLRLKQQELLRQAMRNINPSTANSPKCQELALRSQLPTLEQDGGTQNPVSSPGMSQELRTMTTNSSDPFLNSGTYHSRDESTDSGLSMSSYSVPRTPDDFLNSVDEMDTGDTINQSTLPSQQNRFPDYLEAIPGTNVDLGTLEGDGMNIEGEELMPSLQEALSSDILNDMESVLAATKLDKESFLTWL

T1 sequence (Q15561 217-434): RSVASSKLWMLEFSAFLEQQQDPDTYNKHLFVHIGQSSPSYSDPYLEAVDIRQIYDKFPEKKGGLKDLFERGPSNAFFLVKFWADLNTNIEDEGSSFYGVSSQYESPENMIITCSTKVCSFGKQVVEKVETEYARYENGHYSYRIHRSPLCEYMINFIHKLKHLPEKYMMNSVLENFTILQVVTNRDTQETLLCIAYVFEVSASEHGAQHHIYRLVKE

B1: wt hYAP^50-171 (domain or fragment, human, UniProt P46937-1 50-171, looked up)
chain: AGHQIVHVRGDSETDLEALFNAVMNPKTANVPQTVPMRLRKLPDSFFKPPEPKSHSRQASTDAGTAGALTPQHVRAHSSPASLQLGAVSPGTLTPTGVVSGPAATPTAQHLRQSSFEIPDDV
notes: YAP (Yes-associated protein), human, residues 50-171 of NM_001130145.2; also called hYAP wt; Wild type; source: E. coli NiCo21 (DE3), purified (HisTrap, tag cleaved by HRV 3C protease, Resource S, Superdex 75); not shown: His6, N-terminal, cleaved
What is called Kd is the equilibrium constant for the complex coming apart. High values mean a looser complex, low ones a tighter complex. Consider B1, for which the Kd in experiment [1] stood at 0.018 µM. This lies in the double-digit nanomolar range.

B2: hYAP^50-171 Leu68Ala (domain or fragment, human, UniProt P46937-1 50-171, looked up)
chain: B1 chain with L19A
notes: YAP (Yes-associated protein), human, residues 50-171 of NM_001130145.2; also called hYAP Leu68Ala; source: E. coli NiCo21 (DE3), purified (HisTrap, tag cleaved by HRV 3C protease, Resource S, Superdex 75); not shown: His6, N-terminal, cleaved
With B2, in experiment [1], binding was characterised by a dissociation constant (Kd) of 0.464 µM.

B3: hYAP^50-171 Phe69Ala (domain or fragment, human, UniProt P46937-1 50-171, looked up)
chain: B1 chain with F20A
notes: YAP (Yes-associated protein), human, residues 50-171 of NM_001130145.2; also called hYAP Phe69Ala; source: E. coli NiCo21 (DE3), purified (HisTrap, tag cleaved by HRV 3C protease, Resource S, Superdex 75); not shown: His6, N-terminal, cleaved
B3 came in with a dissociation constant Kd in experiment [1] of 6.45 µM. Against the preceding molecule, the Kd is about 14-fold higher.

B4: hYAP^50-171 Arg89Ala (domain or fragment, human, UniProt P46937-1 50-171, looked up)
chain: B1 chain with R40A
notes: YAP (Yes-associated protein), human, residues 50-171 of NM_001130145.2; also called hYAP Arg89Ala; R89A; source: E. coli NiCo21 (DE3), purified (HisTrap, tag cleaved by HRV 3C protease, Resource S, Superdex 75); not shown: His6, N-terminal, cleaved
With B4, the affinity in experiment [1], expressed as Kd, was 27.4 µM. Compared with the last molecule, the Kd is about 4.2-fold higher.

B5: hYAP^50-171 Phe96Ala (domain or fragment, human, UniProt P46937-1 50-171, looked up)
chain: B1 chain with F47A
notes: YAP (Yes-associated protein), human, residues 50-171 of NM_001130145.2; also called hYAP Phe96Ala; source: E. coli NiCo21 (DE3), purified (HisTrap, tag cleaved by HRV 3C protease, Resource S, Superdex 75); not shown: His6, N-terminal, cleaved
Molecule B5 returned a Kd in experiment [1] of 4.75 µM.

B6: hYAP^50-171 Met86Ala (domain or fragment, human, UniProt P46937-1 50-171, looked up)
chain: B1 chain with M37A
notes: YAP (Yes-associated protein), human, residues 50-171 of NM_001130145.2; also called hYAP Met86Ala; source: E. coli NiCo21 (DE3), purified (HisTrap, tag cleaved by HRV 3C protease, Resource S, Superdex 75); not shown: His6, N-terminal, cleaved
For the molecule B6, the Kd in experiment [1] was determined as 2.08 µM.

B7: hYAP^50-171 Phe95Ala (domain or fragment, human, UniProt P46937-1 50-171, looked up)
chain: B1 chain with F46A
notes: YAP (Yes-associated protein), human, residues 50-171 of NM_001130145.2; also called hYAP Phe95Ala; source: E. coli NiCo21 (DE3), purified (HisTrap, tag cleaved by HRV 3C protease, Resource S, Superdex 75); not shown: His6, N-terminal, cleaved
B7 gave an equilibrium dissociation constant (Kd) in experiment [1] of 26 µM. Compared with the last molecule, the Kd is about 12-fold higher.

B8: hYAP^50-171 Leu65Ala (domain or fragment, human, UniProt P46937-1 50-171, looked up)
chain: B1 chain with L16A
notes: YAP (Yes-associated protein), human, residues 50-171 of NM_001130145.2; also called hYAP Leu65Ala; source: E. coli NiCo21 (DE3), purified (HisTrap, tag cleaved by HRV 3C protease, Resource S, Superdex 75); not shown: His6, N-terminal, cleaved
Molecule B8 yielded a Kd in experiment [1] of 0.794 µM.

B9: hYAP^50-171 Leu91Ala (domain or fragment, human, UniProt P46937-1 50-171, looked up)
chain: B1 chain with L42A
notes: YAP (Yes-associated protein), human, residues 50-171 of NM_001130145.2; also called hYAP Leu91Ala; source: E. coli NiCo21 (DE3), purified (HisTrap, tag cleaved by HRV 3C protease, Resource S, Superdex 75); not shown: His6, N-terminal, cleaved
For B9, binding in experiment [1] was characterised by a dissociation constant (Kd) of 30.6 µM.

B10: hYAP^50-171 Ser94Ala (domain or fragment, human, UniProt P46937-1 50-171, looked up)
chain: B1 chain with S45A
notes: YAP (Yes-associated protein), human, residues 50-171 of NM_001130145.2; also called hYAP Ser94Ala; source: E. coli NiCo21 (DE3), purified (HisTrap, tag cleaved by HRV 3C protease, Resource S, Superdex 75); not shown: His6, N-terminal, cleaved
Regarding B10, the Kd in experiment [1] amounted to 5.62 µM.

B11: N-terminally V5-tagged hTEAD4 Asp272Ala (natural protein, human, UniProt Q15561 1-434, looked up)
chain: MEGTAGTITSNEWSSPTSPEGSTASGGSQALDKPIDNDAEGVWSPDIEQSFQEALAIYPPCGRRKIILSDEGKMYGRNELIARYIKLRTGKTRTRKQVSSHIQVLARRKAREIQAKLKDQAAKDKALQSMAAMSSAQIISATAFHSSMALARGPGRPAVSGFWQGALPGQAGTSHDVKPFSQQTYAVQPPLPLPGFESPAGPAPSPSAPPAPPWQGRSVASSKLWMLEFSAFLEQQQDPDTYNKHLFVHIGQSSPSYSDPYLEAVDIRQIYAKFPEKKGGLKDLFERGPSNAFFLVKFWADLNTNIEDEGSSFYGVSSQYESPENMIITCSTKVCSFGKQVVEKVETEYARYENGHYSYRIHRSPLCEYMINFIHKLKHLPEKYMMNSVLENFTILQVVTNRDTQETLLCIAYVFEVSASEHGAQHHIYRLVKE
For the molecule B11, the “MCAT_Luc reporter luciferase activity in HEK293::MCAT_Luc cells co-transfected with wt hYAP; against wt hTEAD4” value with wt hYAP (full length) was around 4 fold reduction.
